The values below come from patent publication US20230212306A1 (Daiichi Sankyo, published 2023).

This test deals with T1, human TLR7-Flag-His×6 (human TLR7 variant 2), expressed in Ba/F3 cells together with human Unc93B1-HA×2 (human, UniProt Q9NYK1 27-1049).
T1 construct: Cells were permeabilised with 0.1% saponin before staining; also called hTLR7-Flag-His×6; not shown: Flag-His×6 tag added to the C-terminus
T1 sequence: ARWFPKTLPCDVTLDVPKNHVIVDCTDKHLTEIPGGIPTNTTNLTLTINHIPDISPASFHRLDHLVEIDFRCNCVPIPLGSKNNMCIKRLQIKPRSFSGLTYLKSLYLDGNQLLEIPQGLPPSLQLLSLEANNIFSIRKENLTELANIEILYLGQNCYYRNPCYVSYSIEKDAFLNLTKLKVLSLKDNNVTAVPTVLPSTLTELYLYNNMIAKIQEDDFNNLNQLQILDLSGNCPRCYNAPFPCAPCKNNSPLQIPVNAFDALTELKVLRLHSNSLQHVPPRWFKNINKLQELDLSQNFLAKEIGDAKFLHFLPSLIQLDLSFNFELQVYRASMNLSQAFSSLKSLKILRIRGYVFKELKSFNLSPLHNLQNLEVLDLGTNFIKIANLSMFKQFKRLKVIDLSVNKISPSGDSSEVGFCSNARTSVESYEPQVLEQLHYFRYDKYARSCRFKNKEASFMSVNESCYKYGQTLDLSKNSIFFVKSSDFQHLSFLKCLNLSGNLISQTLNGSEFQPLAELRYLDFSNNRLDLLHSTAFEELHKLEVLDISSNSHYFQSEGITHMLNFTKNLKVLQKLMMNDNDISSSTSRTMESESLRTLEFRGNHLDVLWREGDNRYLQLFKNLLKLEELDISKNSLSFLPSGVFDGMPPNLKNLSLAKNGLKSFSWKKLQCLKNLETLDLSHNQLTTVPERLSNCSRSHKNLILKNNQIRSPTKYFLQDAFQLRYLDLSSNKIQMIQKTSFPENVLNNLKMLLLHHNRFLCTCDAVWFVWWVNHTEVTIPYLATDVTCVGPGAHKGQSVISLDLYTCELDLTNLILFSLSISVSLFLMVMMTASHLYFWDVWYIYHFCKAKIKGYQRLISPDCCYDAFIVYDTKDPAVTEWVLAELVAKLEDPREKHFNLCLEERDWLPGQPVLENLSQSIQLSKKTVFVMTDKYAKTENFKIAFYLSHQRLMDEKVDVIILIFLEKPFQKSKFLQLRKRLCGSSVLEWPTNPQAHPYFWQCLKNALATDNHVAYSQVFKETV
As to the kind of experiment: flow cytometry (MFI), antibody dilution series on saponin-permeabilised Ba/F3 cells expressing human TLR7-Flag-His×6/hUnc93B1-HA×2. Here is the method: A Ba/F3 cell line expressing human TLR7-Flag-His×6/hUnc93B1-HA×2 was subjected to membrane permeation with 0.1% Saponin and stained using the dilution series of chimeric AT01 antibody, NB7 antibody, and FAN2 antibody at the antibody concentrations obtained in Example 4, and the secondary antibody, Goat anti-human IgG Fc-PE (eBioscience). The binding activity of each antibody was evaluated by comparing the MFI based on flow cytometry analysis.

B1: cNB7 antibody (antibody, human IgG1, V domains shown)
VH: DVQLQESGPGLVKPSQSLSLTCTVTGYSITSDYAWNWIRQFPGNKLEWMGHISYRGNTNYNPSLKSRISITRDTSKNQFFLQLNSVTTEDTATYYCASWNYYGYVDYAMDYWGQGTSVTVSS
VL: DIQMTQTPSSLSASLGDRVTISCRASQDISNYLNWYQQKPDGTVKLLIYYTSRLHSGVPSRFSGSGSGTDYSLTINNLEQEDIATYFCQQGDTFPTFGGGTKLEIKR
notes: Mouse variable regions on human IgG1 / human kappa constant regions; also called chimeric NB7 antibody; NB7 chimeric anti-human TLR7 antibody
Consider B1, for which the binding result is recorded as “binds”.

B2: cAT01 antibody (antibody, human IgG1, V domains shown)
VH: QVQLQQPGAELVKPGASVNLSCKASGYTFTNNWLHWVKQRPGRGLEWIGDIYPSNGRTNYNEQFKTKATLTVDKSSSTAYMQLSSLTSEDSAVYFCARERGYFDYWGQGTALTVSS
VL: DIQMTQSPSSLSTSLGGKVTITCKASQDINKYIAWYQHKPGKGPRLLIHYTSTLQPGIPSRFSGSGSGRDYSFSISNLEPEDIATYYCLQYDYLLTFGAGTKLELKR
notes: Mouse variable regions on human IgG1 / human kappa constant regions; also called chimeric AT01 antibody; AT01 chimeric anti-human TLR7 antibody
Consider B2, for which the binding result is “binds”.

B3: cFAN2 antibody (antibody, human IgG1, V domains shown)
VH: QVQLKESGPGLVAPSQSLSITCTVSGFSLTGYGVNWVRQPPGKGLEWLGMIWGDGSTDYNSALKSRLSIRKDNSKSQVFLKMNSLQTDDTARYYCARDKGYDGYYYAMDYWGQGTSVTVSS
VL: DIQMTQSPASLSASVGETVTITCRASENIYSYLAWYQQKQGKSPQLLVYDAKTLAEGVPSRFSGSGSGTQFSLKINSLQPEDFGSYYCQHHYGIPYTFGGGTKLEIKR
notes: Mouse variable regions on human IgG1 / human kappa constant regions; also called chimeric FAN2 antibody; FAN2 chimeric anti-human TLR7 antibody
Regarding B3, the binding result was “binds”.
